Measured values: the supplement of paper PMC9112550, “Optimization of the antimicrobial peptide Bac7 by deep mutational scanning” (BMC Biology, 2022)

Test system: Escherichia coli TOP10
Assay: shrunken log2 fold change of peptide-encoding DNA abundance (4.5 h post-induction vs induction); higher = less antimicrobial activity (less host growth inhibition)
Settings: time post-induction: 4.5 h; library: site-saturation at positions 5, 18, 19, 20
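Note: peptides expressed intracellularly from a pBAD plasmid library in pooled LB shake-flask culture, induced with 0.3% L-arabinose, DNA abundance read by NGS, three biological replicates, DESeq2 with apeglm shrinkage.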

With RRIRNRPPRLPRPRPRPDREPRP the “shrunken log2 fold change” value was -0.149.
With RRIRIRPPRLPRPRPRPLDHPRP the “shrunken log2 fold change” value was -0.333.
RRIRRRPPRLPRPRPRPLCLPRP was tested, and the “shrunken log2 fold change” value was 0.0544.
RRIRARPPRLPRPRPRPHYSPRP was tested, and the “shrunken log2 fold change” value was 0.141.
With RRIRIRPPRLPRPRPRPQGDPRP the “shrunken log2 fold change” value was 0.0169.
With RRIRPRPPRLPRPRPRPEMRPRP the “shrunken log2 fold change” value was 0.329.
With RRIRARPPRLPRPRPRPRKGPRP the “shrunken log2 fold change” value was 0.365.
With RRIRARPPRLPRPRPRPYLEPRP the “shrunken log2 fold change” value was 0.982.
With RRIRARPPRLPRPRPRPWENPRP the “shrunken log2 fold change” value was 0.0143.
With RRIRERPPRLPRPRPRPWYTPRP the “shrunken log2 fold change” value was 3.82.
In the case of RRIRRRPPRLPRPRPRPAKCPRP, the “shrunken log2 fold change” value is reported as 0.0405.
With RRIRLRPPRLPRPRPRPVNSPRP the “shrunken log2 fold change” value was 0.1.
For RRIRVRPPRLPRPRPRPLVDPRP, the “shrunken log2 fold change” value was -0.196.
For RRIRHRPPRLPRPRPRPFGFPRP, the “shrunken log2 fold change” value was -0.0586.
With RRIRTRPPRLPRPRPRPKSRPRP the “shrunken log2 fold change” value was -0.0444.
In the case of RRIRNRPPRLPRPRPRPLASPRP, the “shrunken log2 fold change” value is reported as -0.196.
In the case of RRIRIRPPRLPRPRPRPWIDPRP, the “shrunken log2 fold change” value is reported as 0.0218.
For RRIRHRPPRLPRPRPRPNDCPRP, the “shrunken log2 fold change” value was 0.000576.
With RRIRGRPPRLPRPRPRPHSVPRP the “shrunken log2 fold change” value was -0.0536.
With RRIRRRPPRLPRPRPRPGTDPRP the “shrunken log2 fold change” value was 0.0719.
RRIRTRPPRLPRPRPRPMCTPRP was tested, and the “shrunken log2 fold change” value was -0.0211.
RRIRVRPPRLPRPRPRPQMCPRP was tested, and the “shrunken log2 fold change” value was 0.00424.
With RRIRWRPPRLPRPRPRPCGSPRP the “shrunken log2 fold change” value was -0.0157.
In the case of RRIRTRPPRLPRPRPRPSKGPRP, the “shrunken log2 fold change” value is reported as -0.605.
With RRIRNRPPRLPRPRPRPQTLPRP the “shrunken log2 fold change” value was -0.513.
With RRIRLRPPRLPRPRPRPYANPRP the “shrunken log2 fold change” value was -0.165.
RRIRWRPPRLPRPRPRPCFGPRP was tested, and the “shrunken log2 fold change” value was -0.119.
RRIRNRPPRLPRPRPRPQCDPRP was tested, and the “shrunken log2 fold change” value was -0.282.
With RRIRPRPPRLPRPRPRPMSIPRP the “shrunken log2 fold change” value was -0.211.
With RRIRFRPPRLPRPRPRPLRIPRP the “shrunken log2 fold change” value was 0.00235.
RRIRRRPPRLPRPRPRPPNDPRP was tested, and the “shrunken log2 fold change” value was 0.605.
RRIRDRPPRLPRPRPRPGPIPRP was tested, and the “shrunken log2 fold change” value was -0.0864.
RRIRTRPPRLPRPRPRPNAFPRP was tested, and the “shrunken log2 fold change” value was -0.0622.
RRIRTRPPRLPRPRPRPYRVPRP was tested, and the “shrunken log2 fold change” value was 0.0325.
For RRIRARPPRLPRPRPRPTQFPRP, the “shrunken log2 fold change” value was 0.071.
In the case of RRIRHRPPRLPRPRPRPAPEPRP, the “shrunken log2 fold change” value is reported as 0.0106.
With RRIRDRPPRLPRPRPRPHNCPRP the “shrunken log2 fold change” value was 0.0686.
For RRIRNRPPRLPRPRPRPNGHPRP, the “shrunken log2 fold change” value was -0.41.
In the case of RRIRMRPPRLPRPRPRPWWCPRP, the “shrunken log2 fold change” value is reported as 0.0647.
With RRIRNRPPRLPRPRPRPNGPPRP the “shrunken log2 fold change” value was -0.015.
With RRIRVRPPRLPRPRPRPQLHPRP the “shrunken log2 fold change” value was -0.147.
In the case of RRIRMRPPRLPRPRPRPPIHPRP, the “shrunken log2 fold change” value is reported as 0.166.
For RRIRHRPPRLPRPRPRPSSDPRP, the “shrunken log2 fold change” value was -0.529.
With RRIRGRPPRLPRPRPRPLWNPRP the “shrunken log2 fold change” value was 0.116.
For RRIRPRPPRLPRPRPRPKHYPRP, the “shrunken log2 fold change” value was -0.529.
For RRIRSRPPRLPRPRPRPNIEPRP, the “shrunken log2 fold change” value was -0.264.
For RRIRYRPPRLPRPRPRPNNSPRP, the “shrunken log2 fold change” value was -0.52.
For RRIRVRPPRLPRPRPRPVTMPRP, the “shrunken log2 fold change” value was -0.196.
For RRIRVRPPRLPRPRPRPKTFPRP, the “shrunken log2 fold change” value was -0.0753.
For RRIRDRPPRLPRPRPRPWSWPRP, the “shrunken log2 fold change” value was 0.215.
